Measured values as given in patent US20140080757A1 (ZEALAND PHARMA A S, published 2014).
Numbered stars: 1 amine (or outer) side, 2 acyl side, 3 side chain; on linkers, the order of the positions; unused ones are H or OH. Square brackets hold non-standard residues; d marks the D form. Side chains are listed from the residue outwards. * marks the point of attachment. γGlu = O=C(O)[C@H](CCC(=O)[*:2])N[*:1]; Palmitoyl = CCCCCCCCCCCCCCCC(=O)*; Aib = CC(C)(N)C(=O)O

What was measured:
Assay in all cases: cell-based or functional assay
[1] = target: endogenous glucagon receptor of primary rat hepatocytes (rat, UniProt P30082 27-485)
Sequence of endogenous glucagon receptor of primary rat hepatocytes (P30082 27-485): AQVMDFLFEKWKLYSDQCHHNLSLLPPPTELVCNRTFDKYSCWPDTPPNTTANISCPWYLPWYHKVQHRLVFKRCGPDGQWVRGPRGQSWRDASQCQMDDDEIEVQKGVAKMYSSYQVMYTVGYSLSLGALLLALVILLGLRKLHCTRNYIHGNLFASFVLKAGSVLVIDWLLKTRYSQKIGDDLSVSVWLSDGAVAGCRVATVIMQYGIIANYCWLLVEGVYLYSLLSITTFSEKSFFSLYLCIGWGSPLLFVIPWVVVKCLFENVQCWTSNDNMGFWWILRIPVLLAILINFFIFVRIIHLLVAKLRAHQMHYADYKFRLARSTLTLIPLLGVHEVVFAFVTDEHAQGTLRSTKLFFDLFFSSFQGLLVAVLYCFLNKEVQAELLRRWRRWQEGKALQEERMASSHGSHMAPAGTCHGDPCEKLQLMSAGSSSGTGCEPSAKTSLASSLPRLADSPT

[2] = target: human glucagon-like peptide 1 receptor (GLP-1R) (human, UniProt P43220 24-463)
[3] = target: human glucagon receptor (Glucagon-R) (human, UniProt P47871 26-477)
Sequence of human glucagon receptor (Glucagon-R) (P47871 26-477): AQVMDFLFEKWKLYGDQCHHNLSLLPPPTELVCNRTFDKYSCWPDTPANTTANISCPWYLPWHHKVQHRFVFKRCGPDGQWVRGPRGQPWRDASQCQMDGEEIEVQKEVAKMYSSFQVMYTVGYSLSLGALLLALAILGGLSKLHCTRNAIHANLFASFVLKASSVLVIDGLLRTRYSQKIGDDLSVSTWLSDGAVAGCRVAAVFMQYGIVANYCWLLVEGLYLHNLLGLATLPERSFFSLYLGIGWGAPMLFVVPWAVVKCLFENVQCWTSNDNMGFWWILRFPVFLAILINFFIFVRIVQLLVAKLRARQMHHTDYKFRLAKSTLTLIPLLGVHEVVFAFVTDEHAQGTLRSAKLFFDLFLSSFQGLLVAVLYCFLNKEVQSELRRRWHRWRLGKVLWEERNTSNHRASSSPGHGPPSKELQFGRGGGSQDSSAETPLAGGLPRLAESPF

[4] = target: T1, endogenous GLP-1 receptor of a murine insulinoma cell line (murine, UniProt O35659 22-463)
T1 sequence (looked up): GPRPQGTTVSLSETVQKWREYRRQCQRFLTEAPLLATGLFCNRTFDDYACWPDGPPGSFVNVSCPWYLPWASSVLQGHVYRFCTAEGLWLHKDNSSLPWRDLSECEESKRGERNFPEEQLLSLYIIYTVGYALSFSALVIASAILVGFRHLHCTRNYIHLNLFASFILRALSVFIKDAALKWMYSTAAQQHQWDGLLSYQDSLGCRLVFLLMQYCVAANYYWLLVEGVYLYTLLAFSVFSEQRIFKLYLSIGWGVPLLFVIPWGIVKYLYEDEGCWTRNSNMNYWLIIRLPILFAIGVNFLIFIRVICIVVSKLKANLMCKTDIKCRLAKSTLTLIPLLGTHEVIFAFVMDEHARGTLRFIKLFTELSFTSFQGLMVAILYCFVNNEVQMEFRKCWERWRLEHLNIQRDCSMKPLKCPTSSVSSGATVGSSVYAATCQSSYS

B1: Compound 2 (peptide)
peptide: H-HSQGTFTSDYSKYLDSK([γGlu-Palmitoyl])AAHDFVEWLLSA-OH
SMILES: CCCCCCCCCCCCCCCC(=O)N[C@@H](CCC(=O)NCCCC[C@H](NC(=O)[C@H](CO)NC(=O)[C@H](CC(=O)O)NC(=O)[C@H](CC(C)C)NC(=O)[C@H](Cc1ccc(O)cc1)NC(=O)[C@H](CCCCN)NC(=O)[C@H](CO)NC(=O)[C@H](Cc1ccc(O)cc1)NC(=O)[C@H](CC(=O)O)NC(=O)[C@H](CO)NC(=O)[C@@H](NC(=O)[C@H](Cc1ccccc1)NC(=O)[C@@H](NC(=O)CNC(=O)[C@H](CCC(N)=O)NC(=O)[C@H](CO)NC(=O)[C@@H](N)Cc1c[nH]cn1)[C@@H](C)O)[C@@H](C)O)C(=O)N[C@@H](C)C(=O)N[C@@H](C)C(=O)N[C@@H](Cc1c[nH]cn1)C(=O)N[C@@H](CC(=O)O)C(=O)N[C@@H](Cc1ccccc1)C(=O)N[C@H](C(=O)N[C@@H](CCC(=O)O)C(=O)N[C@@H](Cc1c[nH]c2ccccc12)C(=O)N[C@@H](CC(C)C)C(=O)N[C@@H](CC(C)C)C(=O)N[C@@H](CO)C(=O)N[C@@H](C)C(=O)O)C(C)C)C(=O)O
B1 was tested, and the “EC50 GLP-1R Rat hepat. [nM] (inhibition of glycogen synthesis)” value [1] was 0.43 nM, the “EC50 hGLP-1R CHO-K1 [nM] (cAMP)” value [2] was 0.77 nM and the “Ratio GLP-1/Glucagon (EC50 hGLP-1R / EC50 hGCGR)” value [2] was 2.48 ratio. The “EC50 hGCGR CHO-K1 [nM] (cAMP)” value [3] was 0.31 nM and the “EC50 GLP-1R (murine insulinoma cells) [nM] (cAMP)” value (“EC50 GLP-1R … (cAMP)” below) [4] was 1.41 nM.

B2: Compound 3 (peptide)
peptide: H-HSQGTFTSDYSKYLDSK([γGlu-Palmitoyl])AAHDFVEWLLRA-OH
SMILES: CCCCCCCCCCCCCCCC(=O)N[C@@H](CCC(=O)NCCCC[C@H](NC(=O)[C@H](CO)NC(=O)[C@H](CC(=O)O)NC(=O)[C@H](CC(C)C)NC(=O)[C@H](Cc1ccc(O)cc1)NC(=O)[C@H](CCCCN)NC(=O)[C@H](CO)NC(=O)[C@H](Cc1ccc(O)cc1)NC(=O)[C@H](CC(=O)O)NC(=O)[C@H](CO)NC(=O)[C@@H](NC(=O)[C@H](Cc1ccccc1)NC(=O)[C@@H](NC(=O)CNC(=O)[C@H](CCC(N)=O)NC(=O)[C@H](CO)NC(=O)[C@@H](N)Cc1c[nH]cn1)[C@@H](C)O)[C@@H](C)O)C(=O)N[C@@H](C)C(=O)N[C@@H](C)C(=O)N[C@@H](Cc1c[nH]cn1)C(=O)N[C@@H](CC(=O)O)C(=O)N[C@@H](Cc1ccccc1)C(=O)N[C@H](C(=O)N[C@@H](CCC(=O)O)C(=O)N[C@@H](Cc1c[nH]c2ccccc12)C(=O)N[C@@H](CC(C)C)C(=O)N[C@@H](CC(C)C)C(=O)N[C@@H](CCCNC(=N)N)C(=O)N[C@@H](C)C(=O)O)C(C)C)C(=O)O
For B2, the “EC50 GLP-1R Rat hepat. [nM] (inhibition of glycogen synthesis)” value [1] was 0.16 nM, the “EC50 hGLP-1R CHO-K1 [nM] (cAMP)” value [2] was 0.91 nM and the “Ratio GLP-1/Glucagon (EC50 hGLP-1R / EC50 hGCGR)” value [2] was 2.6 ratio. The “EC50 hGCGR CHO-K1 [nM] (cAMP)” value [3] was 0.35 nM and the “EC50 GLP-1R … (cAMP)” value [4] was 1.06 nM.

HXQGTFTSDYSKYLDEXAAKDFIEWLLSA (Aib at position 2; Lys 17 K(Hexadecanoyl-isoGlu); C-terminal amide (-NH2)) [Compound 4] was tested, and the “EC50 GLP-1R Rat hepat. [nM] (inhibition of glycogen synthesis)” value [1] was 0.35 nM, the “EC50 hGLP-1R CHO-K1 [nM] (cAMP)” value [2] was 0.38 nM and the “Ratio GLP-1/Glucagon (EC50 hGLP-1R / EC50 hGCGR)” value [2] was 0.24 ratio. The “EC50 hGCGR CHO-K1 [nM] (cAMP)” value [3] was 1.56 nM and the “EC50 GLP-1R … (cAMP)” value [4] was 0.95 nM.

B3: Compound 5 (peptide)
peptide: H-H[Aib]QGTFTSDYSKYLDSK([γGlu-Palmitoyl])AAHDFVEWLESA-NH2
SMILES: CCCCCCCCCCCCCCCC(=O)N[C@@H](CCC(=O)NCCCC[C@H](NC(=O)[C@H](CO)NC(=O)[C@H](CC(=O)O)NC(=O)[C@H](CC(C)C)NC(=O)[C@H](Cc1ccc(O)cc1)NC(=O)[C@H](CCCCN)NC(=O)[C@H](CO)NC(=O)[C@H](Cc1ccc(O)cc1)NC(=O)[C@H](CC(=O)O)NC(=O)[C@H](CO)NC(=O)[C@@H](NC(=O)[C@H](Cc1ccccc1)NC(=O)[C@@H](NC(=O)CNC(=O)[C@H](CCC(N)=O)NC(=O)C(C)(C)NC(=O)[C@@H](N)Cc1c[nH]cn1)[C@@H](C)O)[C@@H](C)O)C(=O)N[C@@H](C)C(=O)N[C@@H](C)C(=O)N[C@@H](Cc1c[nH]cn1)C(=O)N[C@@H](CC(=O)O)C(=O)N[C@@H](Cc1ccccc1)C(=O)N[C@H](C(=O)N[C@@H](CCC(=O)O)C(=O)N[C@@H](Cc1c[nH]c2ccccc12)C(=O)N[C@@H](CC(C)C)C(=O)N[C@@H](CCC(=O)O)C(=O)N[C@@H](CO)C(=O)N[C@@H](C)C(N)=O)C(C)C)C(=O)O
In the case of B3, the “EC50 GLP-1R Rat hepat. [nM] (inhibition of glycogen synthesis)” value [1] is reported as 0.03 nM, the “EC50 hGLP-1R CHO-K1 [nM] (cAMP)” value [2] is reported as 0.16 nM and the “Ratio GLP-1/Glucagon (EC50 hGLP-1R / EC50 hGCGR)” value [2] is reported as 0.35 ratio. The “EC50 hGCGR CHO-K1 [nM] (cAMP)” value [3] was 0.46 nM and the “EC50 GLP-1R … (cAMP)” value [4] was 0.54 nM.

B4: Compound 1 (peptide)
peptide: H-H[Aib]QGTFTSDYSKYLDSK([γGlu-Palmitoyl])AAHDFVEWLLS-OH
SMILES: CCCCCCCCCCCCCCCC(=O)N[C@@H](CCC(=O)NCCCC[C@H](NC(=O)[C@H](CO)NC(=O)[C@H](CC(=O)O)NC(=O)[C@H](CC(C)C)NC(=O)[C@H](Cc1ccc(O)cc1)NC(=O)[C@H](CCCCN)NC(=O)[C@H](CO)NC(=O)[C@H](Cc1ccc(O)cc1)NC(=O)[C@H](CC(=O)O)NC(=O)[C@H](CO)NC(=O)[C@@H](NC(=O)[C@H](Cc1ccccc1)NC(=O)[C@@H](NC(=O)CNC(=O)[C@H](CCC(N)=O)NC(=O)C(C)(C)NC(=O)[C@@H](N)Cc1c[nH]cn1)[C@@H](C)O)[C@@H](C)O)C(=O)N[C@@H](C)C(=O)N[C@@H](C)C(=O)N[C@@H](Cc1c[nH]cn1)C(=O)N[C@@H](CC(=O)O)C(=O)N[C@@H](Cc1ccccc1)C(=O)N[C@H](C(=O)N[C@@H](CCC(=O)O)C(=O)N[C@@H](Cc1c[nH]c2ccccc12)C(=O)N[C@@H](CC(C)C)C(=O)N[C@@H](CC(C)C)C(=O)N[C@@H](CO)C(=O)O)C(C)C)C(=O)O
In the case of B4, the “EC50 hGLP-1R CHO-K1 [nM] (cAMP)” value [2] is reported as 0.54 nM, the “Ratio GLP-1/Glucagon (EC50 hGLP-1R / EC50 hGCGR)” value [2] is reported as 0.6 ratio and the “EC50 hGCGR CHO-K1 [nM] (cAMP)” value [3] is reported as 0.9 nM. For the same binder, the “EC50 GLP-1R … (cAMP)” value [4] was 1.47 nM.

B5: Compound 11 (peptide)
peptide: H-H[Aib]QGTFTSDYSKYLDEK([γGlu-Palmitoyl])RAKDFIEWLLS-OH
SMILES: CCCCCCCCCCCCCCCC(=O)N[C@@H](CCC(=O)NCCCC[C@H](NC(=O)[C@H](CCC(=O)O)NC(=O)[C@H](CC(=O)O)NC(=O)[C@H](CC(C)C)NC(=O)[C@H](Cc1ccc(O)cc1)NC(=O)[C@H](CCCCN)NC(=O)[C@H](CO)NC(=O)[C@H](Cc1ccc(O)cc1)NC(=O)[C@H](CC(=O)O)NC(=O)[C@H](CO)NC(=O)[C@@H](NC(=O)[C@H](Cc1ccccc1)NC(=O)[C@@H](NC(=O)CNC(=O)[C@H](CCC(N)=O)NC(=O)C(C)(C)NC(=O)[C@@H](N)Cc1c[nH]cn1)[C@@H](C)O)[C@@H](C)O)C(=O)N[C@@H](CCCNC(=N)N)C(=O)N[C@@H](C)C(=O)N[C@@H](CCCCN)C(=O)N[C@@H](CC(=O)O)C(=O)N[C@@H](Cc1ccccc1)C(=O)N[C@H](C(=O)N[C@@H](CCC(=O)O)C(=O)N[C@@H](Cc1c[nH]c2ccccc12)C(=O)N[C@@H](CC(C)C)C(=O)N[C@@H](CC(C)C)C(=O)N[C@@H](CO)C(=O)O)[C@@H](C)CC)C(=O)O
B5 was tested, and the “EC50 hGLP-1R CHO-K1 [nM] (cAMP)” value [2] was 0.64 nM, the “Ratio GLP-1/Glucagon (EC50 hGLP-1R / EC50 hGCGR)” value [2] was 1.05 ratio and the “EC50 hGCGR CHO-K1 [nM] (cAMP)” value [3] was 0.61 nM. The “EC50 GLP-1R … (cAMP)” value [4] was 1.01 nM.

B6: Compound 6 (peptide)
peptide: H-HSQGTFTSDYSRYLDSK([γGlu-Palmitoyl])AAEDFVEWLLRA-NH2
SMILES: CCCCCCCCCCCCCCCC(=O)N[C@@H](CCC(=O)NCCCC[C@H](NC(=O)[C@H](CO)NC(=O)[C@H](CC(=O)O)NC(=O)[C@H](CC(C)C)NC(=O)[C@H](Cc1ccc(O)cc1)NC(=O)[C@H](CCCNC(=N)N)NC(=O)[C@H](CO)NC(=O)[C@H](Cc1ccc(O)cc1)NC(=O)[C@H](CC(=O)O)NC(=O)[C@H](CO)NC(=O)[C@@H](NC(=O)[C@H](Cc1ccccc1)NC(=O)[C@@H](NC(=O)CNC(=O)[C@H](CCC(N)=O)NC(=O)[C@H](CO)NC(=O)[C@@H](N)Cc1c[nH]cn1)[C@@H](C)O)[C@@H](C)O)C(=O)N[C@@H](C)C(=O)N[C@@H](C)C(=O)N[C@@H](CCC(=O)O)C(=O)N[C@@H](CC(=O)O)C(=O)N[C@@H](Cc1ccccc1)C(=O)N[C@H](C(=O)N[C@@H](CCC(=O)O)C(=O)N[C@@H](Cc1c[nH]c2ccccc12)C(=O)N[C@@H](CC(C)C)C(=O)N[C@@H](CC(C)C)C(=O)N[C@@H](CCCNC(=N)N)C(=O)N[C@@H](C)C(N)=O)C(C)C)C(=O)O
For B6, the “EC50 GLP-1R Rat hepat. [nM] (inhibition of glycogen synthesis)” value [1] was 2.87 nM, the “EC50 hGLP-1R CHO-K1 [nM] (cAMP)” value [2] was 0.35 nM and the “Ratio GLP-1/Glucagon (EC50 hGLP-1R / EC50 hGCGR)” value [2] was 0.76 ratio. The “EC50 hGCGR CHO-K1 [nM] (cAMP)” value [3] was 0.46 nM and the “EC50 GLP-1R … (cAMP)” value [4] was 1.14 nM.
